Assay results taken from patent US20240383984A1 (Genentech, published 2024).

Key:
[1] = biological target: T1, cynomolgus FcRH5 protein fragment (soluble) (cynomolgus monkey); assay: BIACORE, hIgG capture, 1:1 model, monovalent
T1 construct: whole entry named; also called Cyno FcRH5 (BIACORE analyte)
T1 chain: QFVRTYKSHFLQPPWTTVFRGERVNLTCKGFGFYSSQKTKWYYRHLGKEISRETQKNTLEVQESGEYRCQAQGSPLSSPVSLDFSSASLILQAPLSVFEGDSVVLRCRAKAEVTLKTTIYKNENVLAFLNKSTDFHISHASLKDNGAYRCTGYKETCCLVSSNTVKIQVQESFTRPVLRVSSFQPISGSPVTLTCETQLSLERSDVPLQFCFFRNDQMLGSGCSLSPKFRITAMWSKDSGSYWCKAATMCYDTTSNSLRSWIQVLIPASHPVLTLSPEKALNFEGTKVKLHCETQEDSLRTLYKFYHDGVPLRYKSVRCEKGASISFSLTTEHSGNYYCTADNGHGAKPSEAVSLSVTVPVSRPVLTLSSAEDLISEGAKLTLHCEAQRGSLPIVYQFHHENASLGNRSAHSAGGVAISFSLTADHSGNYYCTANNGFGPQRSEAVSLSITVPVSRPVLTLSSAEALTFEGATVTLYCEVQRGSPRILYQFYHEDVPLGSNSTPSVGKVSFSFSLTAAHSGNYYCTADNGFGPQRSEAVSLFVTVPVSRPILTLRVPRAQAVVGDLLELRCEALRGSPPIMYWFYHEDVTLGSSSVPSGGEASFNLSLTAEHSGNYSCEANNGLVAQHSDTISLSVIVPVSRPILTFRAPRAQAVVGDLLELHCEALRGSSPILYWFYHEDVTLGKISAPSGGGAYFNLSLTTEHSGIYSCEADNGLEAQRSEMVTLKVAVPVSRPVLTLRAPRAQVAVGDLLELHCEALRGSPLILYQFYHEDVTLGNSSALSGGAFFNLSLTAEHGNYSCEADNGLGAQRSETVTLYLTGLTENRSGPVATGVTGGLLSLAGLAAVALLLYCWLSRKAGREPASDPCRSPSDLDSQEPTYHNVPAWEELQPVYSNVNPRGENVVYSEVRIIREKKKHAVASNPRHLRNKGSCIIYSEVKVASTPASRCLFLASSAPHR
Description: (§1) Briefly, a human IgG capture surface was generated on a Series S CM5 chip using amine coupling and the human IgG capture kit (GE Life Sciences, Piscataway, NJ). Test antibodies were then captured on flow cells 2, 3, or 4, with flow cell 1 used as a reference. An FcRH5 protein fragment was used as the analyte, with a flow rate of […]. Between injections the capture surface was regenerated by a 30-second injection of 3M magnesium chloride or 10 mM glycine, pH 1.5. Interactions were assessed at 25° C. in 10 mM HEPES pH7.4, 150 mM NaCl, and 0.05% Tween 20 (HBSP). Reference data from the reference flow cell and from injection of buffer alone were subtracted prior to kinetic analysis. Kinetic information was calculated by fitting data to a 1:1 binding model. Reference subtraction and data fitting were performed using BIAevaluation software (GE Life Sciences, Piscataway, NJ).
(§2) Kinetic characterization experiments were carried out (see Table 8). In these experiments, binding of soluble FcRH5 protein fragment to purified antibodies in human TDB antibody format was analyzed at six different non-zero concentrations (a 1:3 dilution series, one concentration injected twice as a replicate). Flow rate was set at 40 μl/min and association and dissociation monitored for 600 s.

[2] = biological target: T2, human FcRH5 protein fragment (soluble) (human, UniProt Q96RD9 16-851); assay: BIACORE, hIgG capture, 1:1 model, monovalent
T2 construct: whole entry named; also called soluble human FcRH5; Human FcRH5 (BIACORE analyte)
T2 sequence: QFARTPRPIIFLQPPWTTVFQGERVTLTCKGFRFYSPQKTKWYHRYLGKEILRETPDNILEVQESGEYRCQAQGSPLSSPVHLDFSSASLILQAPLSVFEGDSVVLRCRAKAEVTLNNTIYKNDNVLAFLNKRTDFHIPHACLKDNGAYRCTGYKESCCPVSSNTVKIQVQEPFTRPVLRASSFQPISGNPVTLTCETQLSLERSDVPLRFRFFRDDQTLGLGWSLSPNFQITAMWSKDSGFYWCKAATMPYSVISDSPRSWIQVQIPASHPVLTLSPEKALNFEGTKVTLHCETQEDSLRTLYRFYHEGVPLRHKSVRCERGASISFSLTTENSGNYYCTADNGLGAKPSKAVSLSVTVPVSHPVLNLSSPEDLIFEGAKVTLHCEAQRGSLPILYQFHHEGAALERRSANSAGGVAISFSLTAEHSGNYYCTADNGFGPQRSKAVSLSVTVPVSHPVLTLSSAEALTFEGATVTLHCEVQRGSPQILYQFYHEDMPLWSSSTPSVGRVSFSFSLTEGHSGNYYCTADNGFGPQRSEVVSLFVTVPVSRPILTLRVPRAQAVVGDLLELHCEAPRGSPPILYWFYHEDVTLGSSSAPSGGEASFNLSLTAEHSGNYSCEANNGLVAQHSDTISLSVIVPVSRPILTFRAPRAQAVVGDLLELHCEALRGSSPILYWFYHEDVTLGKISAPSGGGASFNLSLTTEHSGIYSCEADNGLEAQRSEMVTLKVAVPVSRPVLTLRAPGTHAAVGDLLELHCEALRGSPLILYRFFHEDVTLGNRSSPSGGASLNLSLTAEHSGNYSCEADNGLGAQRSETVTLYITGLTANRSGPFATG
Description: as §1, §2

Kd [1]: 6.76 nM
Kd [2]: 2.35 nM
B1: 1G7.v85/38E4.v1 TDB (bispecific antibody, V domains shown)
VH 1: EVQLVESGPGLVKPSETLSLTCTVSGFSLTRFGVHWVRQPPGKGLEWLGVIWRGGSTDYNAAFVSRLTISKDNSKNQVSLKLSSVTAADTAVYYCSNHYYGSSDYALDNWGQGTLVTVSS
VL 1: DIQMTQSPSSLSASVGDRVTITCKASQDVRNLVVWFQQKPGKAPKLLIYSGSYRYSGVPSRFSGSGSGTDFTLTISSLQPEDFATYYCQQHYSPPYTFGQGTKVEIK
VH 2: EVQLVQSGAEVKKPGASVKVSCKASGFTFTSYYIHWVRQAPGQGLEWIGWIYPENDNTKYNEKFKDRVTITADTSTSTAYLELSSLRSEDTAVYYCARDGYSRYYFDYWGQGTLVTVSS
VL 2: DIVMTQSPDSLAVSLGERATINCKSSQSLLNSRTRKNYLAWYQQKPGQSPKLLIYWTSTRKSGVPDRFSGSGSGTDFTLTISSLQAEDVAVYYCKQSFILRTFGQGTKVEIK
notes: knob-into-hole TDB; also called 1G7.v85 TDB; 1G7.v85 (TDB format)
